The target in this assay is T1, pSmad3 (Mus musculus, UniProt Q8BUN5).
T1 construct: endogenous in cells; host or cells: AKR-2B cells
As to the kind of experiment: Nuclear import of pSmad3 (nuclear fractions Western, immunofluorescence) in AKR-2B cells. The settings on record: 90 minutes transduction, TGFβ 5 ng/mL 1 hour. In kind it is cell-based. The protocol: FIGS. 1A-C. SH3 domain of sorting nexin 9 (SNX9) specifically binds pSmad3 and prevents nuclear import. (A) Cartoon depicting domains in full length (FL) SNX9 and constructs used for GST pull down assays. Lysates from AKR-2B cells untreated (−) or stimulated (+) for 45 minutes with 5 ng/mL TGFβ were incubated with GST beads or the indicated fusion polypeptides immobilized on GST beads. Bound polypeptides were eluted and assessed by Western analysis for pSmad3 or pSmad2. Cell lysate reflects signal obtained from 10 μg total protein. (B) AKR-2B cells were transduced for 90 minutes with the indicated concentrations of the TAT-SNX9(SH3) fusion polypeptides. […] Quantitation of nuclear pSmads was performed with Image J software and represents the mean+/−sd of two experiments (Right). […] Quantitation of nuclear Smad3 from 30 cells in each of two experiments (Right).
FIGS. 3A-E. Inhibition of Smad3 signaling by a defined region of the SH3 domain in SNX9. […] (B) Nuclear fractions were prepared and assessed as in FIG. 1B following transduction with the indicated TAT-SNX9(SH3) fusion polypeptide (Left). Quantitation (mean+/−sd) of nuclear pSmad2 or pSmad3 from 2 experiments (Right). (C) Immunofluorescence of nuclear Smad3 was determined as in FIG. 1C from 30 cells in each of two experiments in the absence (−) or presence (+) of 5 ng/mL TGFβ and the indicated TAT-SNX9(SH3) fusion polypeptide (1.5 μM). […]

T1 sequence (Q8BUN5 whole entry): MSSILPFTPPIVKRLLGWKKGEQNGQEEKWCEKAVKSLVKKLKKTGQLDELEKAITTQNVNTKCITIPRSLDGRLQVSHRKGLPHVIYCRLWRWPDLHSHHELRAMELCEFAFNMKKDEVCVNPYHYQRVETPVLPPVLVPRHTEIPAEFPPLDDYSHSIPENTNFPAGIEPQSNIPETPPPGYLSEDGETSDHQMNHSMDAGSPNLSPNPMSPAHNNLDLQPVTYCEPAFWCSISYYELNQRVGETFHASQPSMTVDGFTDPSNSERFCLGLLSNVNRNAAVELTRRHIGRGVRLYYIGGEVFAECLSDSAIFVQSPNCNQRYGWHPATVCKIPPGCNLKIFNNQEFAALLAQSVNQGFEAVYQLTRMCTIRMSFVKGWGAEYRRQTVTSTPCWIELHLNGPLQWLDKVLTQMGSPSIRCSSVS

For the substance “TAT-SH3-2: TAT-SNX9(SH3) fusion polypeptide having SNX9 amino acids 21-51 (31 mer) (TVNEGEIITITNPDVGGGWLEGRNIKGERGL; left off: small tags and cut ends)”, the “nuclear import of pSmad3” value is listed as “specifically prevented pSmad3 nuclear import”.
